From patent publication US20260250410A1, “ANTIBODY AND USE THEREOF” (SICHUAN HUIYU PHARMACEUTICAL CO., LTD., priority 2022, published 2026)

T1: HuCDCP1-C (Homo sapiens, UniProt Q9H5V8)
T1 construct: made in house; host or cells: HEK-293T
T1 sequence (Q9H5V8 30-667): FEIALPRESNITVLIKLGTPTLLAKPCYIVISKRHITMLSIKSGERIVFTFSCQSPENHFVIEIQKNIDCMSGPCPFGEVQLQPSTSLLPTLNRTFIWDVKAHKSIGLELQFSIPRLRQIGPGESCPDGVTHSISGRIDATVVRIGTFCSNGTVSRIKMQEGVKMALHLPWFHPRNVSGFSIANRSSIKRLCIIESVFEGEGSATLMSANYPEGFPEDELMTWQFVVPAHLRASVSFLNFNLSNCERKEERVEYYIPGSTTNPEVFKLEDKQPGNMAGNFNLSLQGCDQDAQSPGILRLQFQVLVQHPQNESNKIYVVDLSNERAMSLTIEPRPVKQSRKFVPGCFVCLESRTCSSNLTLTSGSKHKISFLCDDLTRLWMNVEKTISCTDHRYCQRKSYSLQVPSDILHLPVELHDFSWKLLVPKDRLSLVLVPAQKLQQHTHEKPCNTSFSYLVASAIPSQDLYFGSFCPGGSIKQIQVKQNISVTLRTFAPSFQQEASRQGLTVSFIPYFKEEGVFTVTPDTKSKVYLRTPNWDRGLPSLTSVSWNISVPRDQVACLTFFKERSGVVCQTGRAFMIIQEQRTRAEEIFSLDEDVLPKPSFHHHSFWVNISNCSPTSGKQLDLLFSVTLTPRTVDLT

B1: 1CP-118: humanized anti-CDCP1 antibody produced by 8E5; VH SEQ ID NO: 349, VL SEQ ID NO: 358 (antibody, V domains shown)
VH: QVQLVQSGSELKKPGESVKVSCKASGYTLTDFSMHWVRQAPGQGLEWMGWINTETGAPTYADDFKGRFVLSLDTSVSTAYLQISSLKSEDTAVYYCSRGRDYDPHFDYWGQGTLVTVSS
VL: EIVLTQSPATLSLSPGERATLSCRASQSISDFLHWYQQKPGQSPRLLIKYASQSISGIPARFSGSGSGSDFTLTISSVEPEDFAVYYCQSAHSFPYTFGQGTKLEIK
modifications: humanized antibody 8E5 heavy chain variable region 03; humanized antibody 8E5 light chain variable region 02
B2: 1CP-122: humanized anti-CDCP1 antibody produced by 8E5; VH SEQ ID NO: 349, VL SEQ ID NO: 359 (antibody, V domains shown)
VH: QVQLVQSGSELKKPGESVKVSCKASGYTLTDFSMHWVRQAPGQGLEWMGWINTETGAPTYADDFKGRFVLSLDTSVSTAYLQISSLKSEDTAVYYCSRGRDYDPHFDYWGQGTLVTVSS
VL: EIVLTQSPATLSLSPGERATLSCRASQSISDFLHWYQQKSGQSPRLLIKYASQSISGIPARFSGSGSGSDFTLTISSVEPEDFAVYYCQSAHSFPYTFGQGTKLEIK
modifications: humanized antibody 8E5 heavy chain variable region 03; humanized antibody 8E5 light chain variable region 03
B3: 1CP-120: humanized anti-CDCP1 antibody produced by 8E5; VH SEQ ID NO: 347, VL SEQ ID NO: 359 (antibody, V domains shown)
VH: QVQLVQSGSELKKPGASVKVSCKASGYTLTDFSMHWVRQAPGQGLEWMGWINTETGAPTYADDFKGRFVFSLDTSVSTAYLQISSLKAEDTAVYYCSRGRDYDPHFDYWGQGTLVTVSS
VL: EIVLTQSPATLSLSPGERATLSCRASQSISDFLHWYQQKSGQSPRLLIKYASQSISGIPARFSGSGSGSDFTLTISSVEPEDFAVYYCQSAHSFPYTFGQGTKLEIK
modifications: humanized antibody 8E5 heavy chain variable region 01; humanized antibody 8E5 light chain variable region 03
B4: 1CP-123: humanized anti-CDCP1 antibody produced by 8E5; VH SEQ ID NO: 350, VL SEQ ID NO: 359 (antibody, V domains shown)
VH: QVQLQQSGSELKKPGESVKLSCKASGYTLTDFSMHWVRQAPGQGLKWMGWINTETGAPTYADDFKGRFVFSLDTSVSMAYLQISSLKSEDTAVYYCSRGRDYDPHFDYWGQGTLVTVSS
VL: EIVLTQSPATLSLSPGERATLSCRASQSISDFLHWYQQKSGQSPRLLIKYASQSISGIPARFSGSGSGSDFTLTISSVEPEDFAVYYCQSAHSFPYTFGQGTKLEIK
modifications: humanized antibody 8E5 heavy chain variable region 04; humanized antibody 8E5 light chain variable region 03
B5: 1CP-119: humanized anti-CDCP1 antibody produced by 8E5; VH SEQ ID NO: 350, VL SEQ ID NO: 358 (antibody, V domains shown)
VH: QVQLQQSGSELKKPGESVKLSCKASGYTLTDFSMHWVRQAPGQGLKWMGWINTETGAPTYADDFKGRFVFSLDTSVSMAYLQISSLKSEDTAVYYCSRGRDYDPHFDYWGQGTLVTVSS
VL: EIVLTQSPATLSLSPGERATLSCRASQSISDFLHWYQQKPGQSPRLLIKYASQSISGIPARFSGSGSGSDFTLTISSVEPEDFAVYYCQSAHSFPYTFGQGTKLEIK
modifications: humanized antibody 8E5 heavy chain variable region 04; humanized antibody 8E5 light chain variable region 02

Molecular target: T1, HuCDCP1-C
Test: Caterra affinity of humanized anti-CDCP1 antibodies
Format: binding
Settings: HuCDCP1-C 2 μg/ml immobilized
Procedure: The humanized anti-CDCP1 antibodies obtained from Example 11 were subjected to gene cloning, constructed into pTT5 expression vector for a small amount of expression in CHO cells (Expi-CHOS: Gibco A29127), and purified with an Fc affinity column (AT Protein A Diamond Plus. No. AA402312). Antibody purity was analyzed by HPLC and determined by Nanodrop. High-throughput affinity assay was carried out for a small amount of antibodies by Caterra.

Molecule | ka | kd
B1 | 168000 M⁻¹ s⁻¹ | 0.00225 s⁻¹
B2 | 167000 M⁻¹ s⁻¹ | 0.00209 s⁻¹
B3 | 139000 M⁻¹ s⁻¹ | 1.7e-05 s⁻¹
B4 | 199000 M⁻¹ s⁻¹ | 0.00227 s⁻¹
B5 | 226000 M⁻¹ s⁻¹ | 0.00124 s⁻¹
